# Laboratory results published in paper PMC9741242, “Insights into the Structure of the Highly Glycosylated Ffase from Rhodotorula dairenensis Enhance Its Biotechnological Potential” (International Journal of Molecular Sciences, 2022).
# B1: RdINVΔ21–139 (Rhodotorula dairenensis) (protein)
# chain: SSSCAPTSLPASATELPTTVPTGTVITGDYTGSYRPQVHYSPPKGFMNDPNGCHRDRNGTYHLYYQYNPLEYVAGNQHWGHATSDDLYHWTNQPIAIFPPNSTSQVFSGSAVLDPNNTSGFFPNTTDGVVAVYTLNTPTLQVQEVAYSTDGGYNFTPYENNPVLSVGSNQFRDPKVFWYEDHWVMAVAAANDFTIEIYTSPNLTSWTFASNFTHHGLLGLAYECPNLVQVPFQDDPSKSAWLMYISINPGAPLGGSVGQYFPGDFNGTHFVAYDSAARIADFAKDNYASQWFADTENGESISIAWASNWQYTQQVPTSAQAFRSAMSLPRRNYLTNITRLGWDLVSLPYDLSPVVGPSLLSSSEANSTADVDFTNVTSNAVWFSLNVTLPDAAIQNASLISADASINITFLPSTKCSSSSGSGSDSPAATLTYFYAGLTNGALALTRPAASSSWGAENPFFTDKFSYTLVDPLTSLVGVFDRSMLEVFVNEGAHSATMLVFPDSPVGSMKVATGGLPEGTQVNLQVNGLESTWQSS
# notes: truncated: residues 21-139 deleted after the signal peptide (residues 140-675 remain); secreted by Komagataella phaffii, glycosylated, ~100 kDa; homodimer; deglycosylated for crystals
# Substrate: OC[C@H]1O[C@@](CO)(O[C@H]2O[C@H](CO)[C@@H](O)[C@H](O)[C@H]2O)[C@@H](O)[C@@H]1O
# Test: DNS reducing sugar assay, Michaelis-Menten fit
# Format: biochemical, Rhodotorula dairenensis
# Conditions: 50 mM sodium phosphate pH 5.5, 60 °C, sucrose 1-200 mM
# Source text: DNS reducing sugar assay, Michaelis-Menten fit on RdINVΔ21–139
protein,measurement,value
B1,Km,9 ± 1 mM
same,kcat,16400 ± 216 s⁻¹
same,kcat/Km,1.781e+06 ± 16000 M⁻¹ s⁻¹
